Laboratory results taken from publication PMC6249866 (Molecular Biology of the Cell, 2018).

Target: T1, Asl-A-His6 (WT; Asterless amino acids 1-374) (Drosophila, UniProt Q9VNE4 1-374)
T1 sequence (looked up): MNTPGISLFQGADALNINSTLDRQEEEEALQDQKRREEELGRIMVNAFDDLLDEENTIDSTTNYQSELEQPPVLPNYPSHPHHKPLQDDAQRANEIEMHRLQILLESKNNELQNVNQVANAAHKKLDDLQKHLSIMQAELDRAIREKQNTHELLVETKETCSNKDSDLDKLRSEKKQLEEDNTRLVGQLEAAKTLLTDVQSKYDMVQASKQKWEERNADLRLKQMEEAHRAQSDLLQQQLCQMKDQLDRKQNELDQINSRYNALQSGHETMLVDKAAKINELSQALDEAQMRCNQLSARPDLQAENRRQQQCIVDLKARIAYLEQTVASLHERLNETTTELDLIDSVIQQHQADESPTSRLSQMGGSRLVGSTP
Assay: pull-down

binding result: binds
B1: GST-PB1-PB2 (Plk4 amino acids 382-602) (domain or fragment, Drosophila, UniProt O97143 382-602, looked up)
chain: DRISVPPLNTKRLLPTRYKTKNAIMSILRNGEVVLEFLKFRPTYNEDRINDICRISDDGQRIIIYQPDPGRGLPVREQPPDLQIPSGDCVYNYDNLPSKHWKKYIYGARFVGLVKSKTPKVTYFSTLGKCQLMETMTDFEIRFYSGAKLLKTPSEGLKVYDRNGMLLSDYSCSESRSLIEHGNECFTHCVNISNALEVAQTKDNSCFPVTIGRRPITDVQP
